Data from US20250064890A1, “PROTEIN COMPOSITIONS FOR THE TREATMENT OF INFLAMMATORY DISEASES” (Unichem Laboratories Limited, priority 2021, published 2025).

Experiments:
[1] = tested on: oral (buccal) mucosa cells (TR146); experiment: Annexin positive cell population against 5-FU damage; type: cell-based, human
[2] = tested on: 5-Fluorouracil induced OM; experiment: Mucositis severity score, 5-FU induced OM in hamsters; type: in vivo, golden Syrian hamsters; conditions: for Mucositis score: after 12 days, scale 0-5
Protocol: To induce OM, animals were administered (except normal control) 5-Fluorouracil (5-FU) by intraperitoneal route at doses of 60 mg/kg & 40 mg/kg respectively on first two days. On Day 4, under anesthesia, with aim of enhancing OM, mechanical irritation of the oral mucosa were done using wire brush. Treatment was initiated from Day 4 to Day 12. For group 3 animals 100 μl of vehicle comprising of standard drug Dexamethasone at 0.1 mg was instilled in buccal cheek pouch. For group 4, 5 and 6 animals 100 μl of vehicle comprising of SEQ ID NO. 2 at 0.25 mg, 0.5 mg & 1 mg, respectively was instilled in buccal cheek pouch. At the end of treatment period, cheek pouch of the hamsters was exposed, Mucositis scoring was carried out and images were captured. The animals were then humanely sacrificed, cheek pouch/jugular mucosa were isolated and used for biomarker estimation and histopathological investigation by using ELISA method and Hematoxylin and Eosin (H&E) staining, respectively.
Mucositis severity was scored as given below: • Cheek pouch completely healthy—0; Mild erythema—1; • Severe erythema and superficial erosion—2; Formation of ulcers in one or more places—3; Cumulative ulcer formation about 50% of cheek pouch surface area—4; Complete ulceration of the cheek pouch mucosa—5.

B1: SEQ ID NO 2: recombinant lectin, variant of the S. rolfsii lectin amino acid sequence (reported as Rec-2 in WO 2010/095143) (protein)
chain: TYKITVRVYQTNPDAFFHPVEKTVWKYANGGTWTITDDQHVLTMGGSGTSGTLRFHADNGESFTATFGVHNYKRWCDIVTNLAADETGMVINQQYYSQKNREEARERQLSNYQVKNAKGRNFQIVYTEAEGNDLHANLIIG
% Apoptotic cells (Annexin +ve) ([1]; 0.01 μg/ml + 5FU (10 mM)): 3% | % Decrease in Apoptotic cells (with respect to 5-FU) ([1]; 0.01 μg/ml + 5FU (10 mM)): 81.7% | % Apoptotic cells (Annexin +ve) ([1]; 1 μg/ml + 5FU (10 mM)): 3.1% | % Decrease in Apoptotic cells (with respect to 5-FU) ([1]; 1 μg/ml + 5FU (10 mM)): 81.1% | % Apoptotic cells (Annexin +ve) ([1]; 10 μg/ml + 5FU (10 mM)): 8% | % Decrease in Apoptotic cells (with respect to 5-FU) ([1]; 10 μg/ml + 5FU (10 mM)): 51.5% | % Apoptotic cells (Annexin +ve) ([1]; 50 μg/ml + 5FU (10 mM)): 19.3% | % Decrease in Apoptotic cells (with respect to 5-FU) ([1]; 50 μg/ml + 5FU (10 mM)): −17.4% | % Apoptotic cells (Annexin +ve) ([1]; 100 μg/ml + 5FU (10 mM)): 26% | % Decrease in Apoptotic cells (with respect to 5-FU) ([1]; 100 μg/ml + 5FU (10 mM)): −58.5% | Mucositis score ([2]; G4, 0.25 mg/animal): 3.00±0.4 | Mucositis score ([2]; G5, 0.5 mg/animal): 2.8±0.3 | Mucositis score ([2]; G6, 1 mg/animal): 4.00±0.3 | mucositis score as compared to the untreated subjects ([2]; hamsters suffering from OM, in words): reduction
